Reference: the nanobody polyreactivity screen of Harvey et al. (2022)

Assay: yeast display, Sf9 membrane polyspecificity reagent, FACS + sequencing; frameworks hold sequencing errors
How it was run: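 Using colony PCR, genes from sorted yeast display clones were amplified, then sequenced on MiSeq at 2 × 250 and filtered by CDR length. The clones had been stained with 10% biotinylated, detergent-solubilized Sf9 membrane reagent for 1 hour at 4 °C and sorted by FACS into low and high (top ~1%) gates on anti-HA and streptavidin fluorescence. Polyreactivity labels come from the gate of origin.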

Row | Sequence | polyreactivity (PSR sort gate)
1 | QVQLVESGGGLVQAGGSLRLSCAASGFTIRWYTMGWYRQAPGKERELVAAITSGGGTYYADSVKGRFTISRDNAKNTVYLQMNILKPEDTAVYYCAARTLSVARRRPYYYWGQGTQVTGSS | high polyreactivity
2 | QVQRVESGGGLFQAGGRLRLSCAASGSISLKYAMGWYRQAPGKERELVATISRGGSTNYADSVKGRFTISRDNAKNTVYIQMNSLKPEDTAVYYCAANYGRPYGTYGYWGQGTQVTVSS | high polyreactivity
3 | QVQLVESGGGLVQAGGSLRLSCAASGSIFGPNAMGRSRQAPGKERELVAAISWVGGSTYYADSVKGRFTISGDIAKNTVYLQMNSLKPEDTAVYYCNASGYHDTALRYDYWGQGTQVTVSS | low polyreactivity
4 | QVQLVESGGGLVQAGGSLRLSCAASGSIFRFNAMGWYRQAPGKERELVAAISDSGGRTYYADSVKGRFTISRDNAKNTVYLQMNSLKPEETAVYYCNAYVHSQGGDYWGQGTQVTVSS | high polyreactivity
5 | QVQLVESGGGLVQAGGSLRLSCAASGFIFPIYAMGWYRQAPGKERELVAAITSNGASTYYADSVKGRFTISRDNAKNTVYLQMNSLKPEDTAVYYCARDPSIRALEHDYWGQGTKVTVSS | high polyreactivity
6 | QVQLVESGGGLVQAGGSLRLSCAASGRTFYVYAMGWYRQAPGKERELVAAITRGGRTKYADSVKGRFTISRDNAKNTVYLQMNSLKPEDTAVYYCATVASPNRGGVSRYDYWGQGTQVTVSS | high polyreactivity
7 | QVQLVESGGGLVQAGGSLRLSCAASGRTFWVYAMGWYRQAPGKERELVAAISRSGVSTYYADSVKGRFTISRDNAKNTVYLQMNSLKPEDTAVYYCAAPLIYTPLKYHYWGQGTQVTVSS | low polyreactivity
8 | QVQLVESGGGLVQAGGSLRLSCAASGFTSRANAMGWYRQAPWKESELVAVITAGGGSTSYADSVKGRFTISRDNAKNTVYLQMNSLKPEDTAVYYCASTWYGGPYKSYYYWGQGTQVTVSS | low polyreactivity
9 | QVRLVESGGGLVQAGGSLRLSCAASGSTFNNYDMGWYRQAPGKERELVAAYADSVKGRFTISRDNAKNTVYLQMNRLKPEDTADYYCAAVREKTLYYLSRFDYWGQGTQVTVSS | low polyreactivity
10 | QVQLVESGGGLVQAGGSLRLSCAASGSTFGPYAMGWYRQAPGKERELVAAISSRGARTYYADSVKGRFTISRDNAKNTVYLQMNSLKPEDTAVYYCANTYHGTAYDYWGQGTQVTVSS | high polyreactivity
11 | QVQLVESGGGLVQAGGSLRLICAASGSTFYFYAMGWYRQAPGKERELVAVISSGGSTYYADSVKGRFTISRDNAKNTVYLQMNSLKPEDTAVYYCAAYYYYTLYYRYDYWGQGTQVNVSS | low polyreactivity
12 | QVQLVESGGGLVQAGGSLRLSCAASGYTFAWYTMGWYRQAPGKERELVAAISASGVRTYYADSVKGRFTISRDNAKNTVYLQMNSLKPQDTAVYYCNRVYSTSRITQYEFDYWGQGTQVTVSS | low polyreactivity
13 | QDQLVESRGGLVQAGGSLRLSCAASGINIGTNAMGWYRQAPGKERELVAAISGGGSTDYADSVKGRFTISRDNAKNPVYLQMNSLKPEDPAFYYCAANTGPVPLKGDYWGQGTQVTVSS | low polyreactivity
14 | QVQLVESGGGLVQAGGSLRLSCAASGYFDLNAMGWYRQAPGKERELVAAITDGGSTNYADSVKGRFTISRDNAKNTVYLQMNSLKPEDTAVYYCAADRGHTILHGGHWGQGTQVTVSS | low polyreactivity
15 | QVQLVESAGGLVQAGGSLRLSCAASGSTFAFYAMGWYRQAPGKERELVAVISLRGSRTYYADSVKGRFTISRDNAKNTVYLQMSSLKPEDTAVYYCATTGYRLRQATRYDYWGQGTQVTVSS | high polyreactivity
16 | QVQLVESGGGLVQAGGSLRLICAASGSTFNGYVMGWYRKAPGKERELVAAISRSGGSTYYADSVKGRFTNSRDNAKNTVYLQMNSLKPEDTAVYDCAAAPPLAGLGGYYWGQGTQVTVSS | high polyreactivity
17 | QDQLVESGGGLVQAGGSLRLRCAASGLILANYAMGCYRPAPVKERELVAAISSSGGSKYYADSVKGRFTISRDNAKHTVYFQMNSLKPEDTAVYDCAAYPLYRRRWTGDYWGQGTQVTVSS | high polyreactivity
18 | QVQLVESGGGLVQAGGSLRLSCAASGRIFYNYVMGWYRQAPGKERELVAAISSSGGSTYYADSVKGRFTISRDNAKNSVYLQMNSLKPEDTAVYYCSAETYQLTWVLYYYWGQGTQVTVSS | high polyreactivity
19 | QVQLVESGGGLVQAGGSLRLSCAASGSIFNLYAMGWYRQAPGKERELVATITWSGGSTYYADSVKGRFTISRDNAKNTVYLQMNSLKPEDTAVYYCAATALEWYPAVYNQYYYWGQGTQVTVSS | low polyreactivity
20 | QVQLVESGGGLVQAGGSIRLSCAASGSTFYIYAMGWYRQAPGQERELVATISWSGGSTYYADSVKGRFTISRDNAKNTVYLQMNSLKPEDTAVYYCAVRPGFGRSLWYGYWGQGTQVTVSS | high polyreactivity
21 | QVQLVESGGGLVQAGGSLRLSCAASGRTFDIYAMGWYRPAPGKERELVAAISSGGSTYYADSVKGRFTISRDNAKNTVYLQMNSLKPEDTAVYYCAVRWYDQVSRRGIGYYWGQGTQVTVSS | low polyreactivity
22 | QVQLVESGGGLVQAGGSLRLSCAASGRTFTPNAMGWYRQAPGKDRELVAAITSTGGRTYYADSVKGRFTISRDNAKNTVYLQMNSLKPDDTAVYYCAVSYRYLRKYGYWGQGTQVTVSS | high polyreactivity

Row | Sequence | polyreactivity (PSR sort gate)
23 | QVQLVESGGGLVQAGGSLRLSCAASGGTFRNNAMGWYRQAPGKERELVAAISWSGGRTYYADSVKGRFTISRDNAKNTVYLQMNSLKPEDTAVYYCAASYSGRQDRYPHYDYWGQGTQVTVSS | low polyreactivity
24 | QVQLVESGGGLVQAGGSLRLSCAASGRIFSYYAMGWYRQAPGKERELVAAISNGGNTYYADSVKGRFTISRDNAKNTVYLQMNSLKPEDTAVYYCYVRRYDYWGQGTQVTVSS | high polyreactivity
25 | QVQLVESGGGLVQAGGSLRLSCAASGRTFPGNAMGWYRQAPGKERELVAAISSRGGSTYYADSVKGRFTISRDNAKNTVYLQMNSLKPEDTAVYYCARRYLPYGGYYYWGQGTQVTVSS | high polyreactivity
26 | QVQLVESGGGLVQAGGSLRLSCAATGSTFASYAMGWYIQAPGKERELVAAITNGGSTNYADSVKGRFTISRDNAKNNVYLQMNSLNPEDTAVYYCAAYDGFPRRYDYWGQGTQVTVSS | low polyreactivity
27 | QVQLVESGGGLVQAGGSLRLSCAASGRTDNTNAMGWYRQAPGKERELVAAITRSGDSTYYADSVKGRFTISRDNAKNTVYLQMNSLKPEDTAVYYCAAYSRTLYPDRYYWGQGTQVTVSS | high polyreactivity
28 | QVQLVESGGGLVQAGGSLRLSCAASGSTLPYYAMGWYRQAPGKERELVAAITSSGGDTYYADSVKGRFTISRDNAKNTVYFQMNSLKPEDTAVYYCAKSYSARSTVRKLFYFAYDYWGQGTQVTVSS | low polyreactivity
29 | QVQIVESGGGLVQAGGILRLSCAASVITFGYYAMGWYSQAPGKEWELVAAISRSGGNTRYADSVKGRFTISRDNAKNTVYLQMNSLTPEDTAVYYCAAYSRYTRTFPLFSGSRYGYWGHGTQVTVSS | high polyreactivity
30 | QVQLVESWGGLVQAGGSLRLSCAASGRTFYSYVMGWYRKAPGKEREMVAAITSGGSTYYADSVKGRFTISRDNAKNTVYLQMNSLKPEDTAVYYCAADGDYASYDTFWYWAPEYDYWGQGTQVTVSS | low polyreactivity
31 | QVQLVESGGGLVQAGGSLRLSCAASGGIFEAYVMGWYRQAPGKERELVAAISFRGGSTYYADSVQGRFTISRVNAKNSVYLQMNSLKPEDTAVYYCAADYRHQGYDYWGQGTQVTVSS | low polyreactivity
32 | QVQLVESGGGLVQAGGSLRLSCAASGRIFVKNAMGWYRQAPGKERELVATISSGGNTNYADSVKGRFTISRDNAKNTVYLQLNSLKPEDTAVYYCAAVWDLGDYELPYDYWGQGTQVTVSS | low polyreactivity
33 | QVQLEESGGGLVQAGRSLRLSCAASGRIFTYYSMGWYRQAPWKERELVAAISRSGRTYYADSVKGRFTISRDNAKNTVYLQMNILIPEDTAVYYCAAEYYYSWFEYWGQGTQVTVSS | high polyreactivity
34 | QVQLVESGGGLVQAGGSLRLSCAASGLTFLDYAMGWYRQAPGKERELVAAITSGGSTNYADSVKGRFTISRDNAKNTVYLQMNSLKPEDTAVYYCATDLEVSAYDYWGQGTQVTVSS | low polyreactivity
35 | QVQLVESGGGLVHAGGSLRLSCATSGRTFKYNAMGWYRQAPGKEREFVAAISSRGGSTTYYADSVTGRFTISRDNAKNTVYLQMKSLKPEDTAVYYCADRTPPPASRSRVYYWGQCTQVTVSS | high polyreactivity
36 | QVQLVESGGGVVQAGGSLRLSCAASGRICVRYAMGWYRQAPGKERELVAAISTRGGSTYYADSVKGRFTISRDNAKYTVYFQMNSLKPEDTAVYYCAARGVGPQPGYQRFNYWGQGTQVTVSS | high polyreactivity
37 | QVQLVESGGGLVQAGGSLRLSCAASGRIFSLYAMGWYRQAPGKERELVADITYRGGDSTYYADSVKGRFTISRDNAKNTVYLKMNSLKPEDTAVYYCAAGQPLYQRRHSSRTYYYWGQGTQVTVSS | high polyreactivity
38 | QVQLEESGGGLVQAGGSLRLSCADSGITFYLNAMGWYRQAPGKERELVADITVSGGSTYYADSVKGRFTISRDNAKNTVYLEMNSLKPEDTAVYYCAADMTISYSQEYYFWGQGTQVTVSS | low polyreactivity
39 | QVQLVESGGGLVQAGGSLRLSCAASGRIFSTYAMGWYRQAPGKERELVAAINKIGGSTYYADSVKGRFTISRDNAKNTDYLQMNSLKPEDSAVYYCAADAPYYPVRRYYYWGQGTQVTVSS | low polyreactivity
40 | QVQLVESGGGLVQAGGSLRLSCAASGSTFLYYAMGWYRQAPGKERELVAAISWSGGSTYYADSVKGRFTISRDNAKNTVYLQMKSLKPEDTAVYYCAASSPWEQSNDQFYYWGQGTQVTVSS | low polyreactivity
41 | QVQLVESGGRLVQAGGRLRLSGAASGSNFTDNAMGWYRQAPGKERELVAGISERGSSTYYADSVKGRFTISRDNAKNTVYLQMNSLKRVDTAVYYCSAEDVGRYWSSTHNWARGDYWGQGTQVTVSS | low polyreactivity
42 | HVQLVESGGGLVQAGGSLRLSCAASGRIFKYYAMGWYRQAPGKERELLAAITYSGGSTNYADSVKGRFTISRDNAKNTVYLQMKSLKPEDTAVYYCNAYSYRNFLSHYNYWGQGTQVTVSS | high polyreactivity
43 | QVQLVESGGGLVQAGGSLRLSCAASGSTFSGYAMGWYRQAPGKEMEFVATISISGGSTYYADSVKGRFTISRDNAKNTVYLQMNSLKPEDTAVYYCNADYYFSWGSIEDYWGQGTQVTVSS | low polyreactivity
